Stoichiometry N data for one substance are collected here from publication PMC5173029.

This experiment has as its target Recombinant FIP-sch3 from Stachybotrys chartarum (Stachybotrys chartarum IBT 7711). The experiment can be described thus: SEC; Superdex 75 (10/300 GL) gel filtration in PBS (10 mM, pH 7.2) after the GST tag was removed; markers 66, 43, 29 and 17 kDa; calculated mass about 28.3 kDa against 14.1 kDa for the monomer.

A word on the stoichiometry N: it is a count of units in the complex or per binding partner. Take “Recombinant FIP-sch3 from Stachybotrys chartarum (natural protein)”: the stoichiometry N is 2.
